# Laboratory results: the supplement of paper PMC10567573
# B1: TRIM9 (parent)
# chain: PRNSCITCPQCHRSLILDDRGLRG
# Variants of: B1
# Test: protein stability index of a GFP-peptide fusion (GPS, HEK-293T) (PSI 1-6); higher = more stable
# Conditions: c terminus: a fixed tail appended
# 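Also: lentivirally expressed fusions sorted by FACS into six bins by GFP to DsRed ratio, PSI derived from sequencing read proportions per bin multiplied by bin number.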
row,Variant,protein stability index
1,R23N,2.56
2,R23A,2.5
3,R23H,2.05
4,R23M,1.67
5,R23P,2.42
6,R23V,1.93
7,R23L,2.48
8,R23K,2.2
9,R23C,2.6
10,R23Y,1.63
11,R23S,2.1
12,R23F,2.75
13,R23Q,2.41
14,R23E,3.21
15,R23I,2.08
16,R23T,3
17,R23G,2.48
18,R23W,1.25
19,R23D,2.96
20,L17V,2.19
21,L17Y,2.11
22,L17G,2.08
23,L17D,2.48
24,L17S,2.15

row,Variant,protein stability index
1,L17F,2.44
2,L17Q,2.25
3,L17W,1.56
4,L17K,2.1
5,L17H,2.74
6,L17T,2.08
7,L17C,2.51
8,L17M,2.21
9,L17R,2.48
10,L17E,2.2
11,L17N,1.79
12,L17P,2.4
13,L17A,1.72
14,L17I,2.05
15,C8P,3.14
16,C8M,2.62
17,C8Q,2.16
18,C8V,2.47
19,C8T,3.33
20,C8H,2.29
21,C8G,2.34
22,C8A,2.84
23,C8K,2.4
24,C8L,2.35

row,Variant,protein stability index
1,C8W,2.89
2,C8Y,2.54
3,C8D,2.24
4,C8F,1.57
5,C8E,3.18
6,C8I,2.38
7,C8N,2.6
8,C8S,3.15
9,C8R,2.47
10,I16D,2.64
11,I16E,3.16
12,I16T,1.99
13,I16M,2.58
14,I16K,2.68
15,I16S,2.97
16,I16G,1.76
17,I16A,1.94
18,I16C,2.32
19,I16P,2.42
20,I16H,1.97
21,I16Q,2.69
22,I16N,2.49
23,I16R,2.13
24,I16Y,2.58

row,Variant,protein stability index
1,I16V,2.28
2,I16F,1.69
3,I16L,2.38
4,T7S,2.48
5,T7K,2.25
6,T7V,3.1
7,T7M,2.36
8,T7A,2.42
9,T7D,1.81
10,T7Q,2.38
11,T7Y,2.33
12,T7F,1.84
13,T7N,2.04
14,T7G,2.4
15,T7C,2.05
16,T7L,1.99
17,T7E,1.99
18,T7H,3.11
19,T7W,2
20,T7P,1.72
21,T7R,1.98
22,T7I,2.16
23,L15C,1.95
24,L15G,1.64

row,Variant,protein stability index
1,L15S,2.19
2,L15I,1.68
3,L15W,2.48
4,L15T,2.59
5,L15K,2.12
6,L15A,1.92
7,L15M,2.61
8,L15R,2.13
9,L15V,2.24
10,L15D,2.51
11,L15P,2.77
12,L15H,2.45
13,L15Y,2.79
14,L15N,1.98
15,L15E,2.19
16,L15F,3.08
17,L15Q,2.79
18,Q10D,2.49
19,Q10V,2.29
20,Q10R,2.36
21,Q10F,3
22,Q10Y,3.29
23,Q10T,2.52
24,Q10I,2.05

row,Variant,protein stability index
1,Q10G,4.38
2,Q10P,2.02
3,Q10M,2.04
4,Q10N,2.47
5,Q10A,2.37
6,Q10S,2.46
7,Q10E,1.53
8,Q10L,1.89
9,Q10K,2.25
10,Q10C,1.95
11,Q10H,2.62
12,D19K,2.05
13,D19S,2.11
14,D19H,1.9
15,D19W,1.52
16,D19Q,2.77
17,D19V,1.4
18,D19M,2.24
19,D19A,2.46
20,D19Y,1.7
21,D19G,1.58
22,D19N,1.93
23,D19C,2.6
24,D19P,1.81

row,Variant,protein stability index
1,D19I,1.75
2,D19E,1.82
3,D19T,2.42
4,D19L,1.41
5,D19R,1.84
6,D19F,1.72
7,P9R,2.58
8,P9V,2.67
9,P9H,1.51
10,P9S,2.16
11,P9T,1.83
12,P9N,1.54
13,P9A,2.5
14,P9W,3.5
15,P9M,1.45
16,P9D,2.05
17,P9L,2.12
18,P9K,2.18
19,P9G,1.72
20,P9C,2.45
21,P9E,1
22,P9F,1.54
23,P9Y,3.11
24,G24P,2.03

row,Variant,protein stability index
1,G24A,2.13
2,G24M,2.17
3,G24K,1.71
4,G24D,2.08
5,G24N,1.86
6,G24F,2.34
7,G24H,3.02
8,G24I,2.03
9,G24C,2.35
10,G24L,1.81
11,G24E,2.6
12,D18E,1.71
13,D18P,1.49
14,D18S,2.3
15,D18H,2.03
16,D18L,1.53
17,D18G,2.36
18,D18C,2.05
19,D18N,1.7
20,D18W,1.68
21,D18F,1.92
22,D18A,2.31
23,D18T,2.24
24,D18K,2.24

row,Variant,protein stability index
1,D18Q,1.96
2,D18I,1.53
3,D18V,1.85
4,D18M,2.57
5,D18Y,2.36
6,R13Y,2.53
7,R13L,1.57
8,R13C,4.16
9,R13D,3.33
10,R13M,1.77
11,R13S,2.9
12,R13A,3.91
13,R13Q,2.63
14,R13K,1.95
15,R13V,2.2
16,R13F,2.09
17,R13H,2.59
18,R13N,2.49
19,R13P,1.97
20,R13T,3.47
21,R13W,2.42
22,R13I,1.95
23,R13G,2.37
24,R13E,2.61

row,Variant,protein stability index
1,S14I,2.93
2,S14H,2.25
3,S14K,2.7
4,S14V,3.13
5,S14T,2.71
6,S14W,1.68
7,S14A,2.18
8,S14M,2.27
9,S14C,2.92
10,S14G,1.26
11,S14L,2.11
12,S14P,2.52
13,S14Y,2.66
14,S14Q,2
15,S14N,1.9
16,S14R,2.4
17,S14D,2.4
18,S14E,2.6
19,S14F,1.91
20,C11L,1.83
21,C11Q,2.16
22,C11Y,2.11
23,C11R,2.71
24,C11F,2.38

row,Variant,protein stability index
1,C11S,2.43
2,C11W,3.38
3,C11E,2.86
4,C11V,2.2
5,C11K,2.62
6,C11H,2.51
7,C11G,3.01
8,C11T,2.78
9,C11M,1.97
10,C11A,2.29
11,C11I,2.98
12,C11D,2.92
13,C11P,2.47
14,H12A,2.53
15,H12P,2.52
16,H12G,2.68
17,H12K,2.69
18,H12Y,2.46
19,H12F,2.2
20,H12W,2.07
21,H12Q,1.96
22,H12L,3.13
23,H12C,1.6
24,H12N,2.16

row,Variant,protein stability index
1,H12T,1.38
2,H12S,2.04
3,H12V,3.37
4,H12I,1.85
5,H12D,2.28
6,H12M,2.78
7,L22W,2.54
8,L22K,2.46
9,L22R,2.84
10,L22G,2.3
11,L22F,1.91
12,L22T,3.33
13,L22I,2.36
14,L22S,2.62
15,L22N,2.34
16,L22V,2.55
17,L22P,3.51
18,L22M,2.69
19,L22H,2.49
20,L22C,2.32
21,L22E,2.21
22,L22Y,2.54
23,L22Q,3.69
24,L22D,3.81

row,Variant,protein stability index
1,R20C,2.39
2,R20K,1.98
3,R20V,1.82
4,R20F,1.69
5,R20G,2.19
6,R20Q,2.04
7,R20P,2.6
8,R20D,2.53
9,R20M,2.21
10,R20L,1.93
11,R20E,2.7
12,R20N,2.05
13,R20H,1.62
14,R20I,1.85
15,R20T,3.07
16,R20A,1.98
17,R20W,1.44
18,R20Y,2.35
19,I6N,2.29
20,I6M,2.08
21,I6L,2.26
22,I6H,2.46
23,I6G,1.93
24,I6Q,2.16

row,Variant,protein stability index
1,I6Y,2.72
2,I6T,1.89
3,I6S,2.02
4,I6P,2.6
5,G21Q,2.01
6,G21A,1.93
7,G21S,1.71
8,G21K,2.52
9,G21P,2.27
10,G21H,2.11
11,G21Y,2.24
12,G21W,2.06
13,G21F,1.88
14,G21C,2.52
15,G21D,2.07
16,G21V,1.78
17,G21T,1.57
18,G21I,1.47
19,G21L,2.09
20,G21N,2.17
21,G21M,2.8
22,G21E,2.93
